This note sets out measurements from PMC9482650, “Quantitative fragmentomics allow affinity mapping of interactomes” (Nature Communications, 2022).

Targets include PARD3B_3, Q8TEW8; PREX1_1, Q8TCU6; SCRIB_4, Q14160; CNKSR3, Q6P9H4; CARD14, Q9BXL6; MAGI3_4, Q5TCQ9; GRIP2_2, Q9C0E4; DLG5_2, Q8TDM6; DLG1_3, Q12959; Inadl_7, Q8NI35; DVL2, O14641; TJP1_1, Q07157.
Holding throughout (test): holdup assay
Design in all cases: key: below the threshold = too weak to quantify, mostly under pKd 3.1 to 4
What all share (settings): plain residues with an end cap or a label only (N-terminal biotin on a linker: ttds)

The target of the next experiment is T1, MPDZ_2, O75970.
T1 sequence (O75970 252-347, limits assumed, looked up): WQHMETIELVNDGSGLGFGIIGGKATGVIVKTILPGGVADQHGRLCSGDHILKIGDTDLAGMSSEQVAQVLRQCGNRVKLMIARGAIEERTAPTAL

The next experiment deals with T2, PDZRN3_2, Q9UPQ7.
T2 sequence (Q9UPQ7 414-513, limits assumed, looked up): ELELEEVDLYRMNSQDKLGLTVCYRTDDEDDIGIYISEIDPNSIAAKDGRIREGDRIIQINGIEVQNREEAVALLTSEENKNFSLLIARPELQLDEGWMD

A further experiment addresses T3, PTPN13_4, Q12923.
T3 sequence (Q12923 1783-1878, limits assumed, looked up): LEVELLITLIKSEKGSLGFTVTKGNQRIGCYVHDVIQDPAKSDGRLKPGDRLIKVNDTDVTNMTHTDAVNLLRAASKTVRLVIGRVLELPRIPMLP

For the next experiment, the target named is T4, USH1C_2, Q9Y6N9.
T4 sequence (Q9Y6N9 206-303, limits assumed, looked up): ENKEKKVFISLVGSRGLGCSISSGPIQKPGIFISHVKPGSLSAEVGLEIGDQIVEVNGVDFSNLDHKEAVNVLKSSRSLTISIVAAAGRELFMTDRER

Another experiment addresses T5, PDZD4, Q76G19.
T5 sequence (Q76G19 125-224, limits assumed, looked up): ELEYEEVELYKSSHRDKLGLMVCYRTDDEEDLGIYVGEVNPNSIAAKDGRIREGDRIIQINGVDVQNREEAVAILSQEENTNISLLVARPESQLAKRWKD

The target in the next experiment is T6, APBA1_2, Q02410.
T6 sequence (Q02410 742-832, limits assumed, looked up): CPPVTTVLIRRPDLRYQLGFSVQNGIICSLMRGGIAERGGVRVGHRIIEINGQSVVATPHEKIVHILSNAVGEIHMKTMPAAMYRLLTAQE

Another experiment deals with T7, PDZD2_5, O15018.
T7 sequence (O15018 2617-2716, limits assumed, looked up): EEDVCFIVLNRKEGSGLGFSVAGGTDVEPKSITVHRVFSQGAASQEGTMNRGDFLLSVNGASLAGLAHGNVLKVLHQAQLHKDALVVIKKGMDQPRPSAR

Another experiment concerns the target T8, SYNPO2L, Q9H987.
T8 sequence (Q9H987 1-98, limits assumed, looked up): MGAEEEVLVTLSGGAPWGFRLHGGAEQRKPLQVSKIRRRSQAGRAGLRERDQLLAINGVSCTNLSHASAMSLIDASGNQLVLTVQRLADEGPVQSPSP

The target of a further experiment is T9, MPDZ_11, O75970.
T9 sequence (O75970 1720-1817, limits assumed, looked up): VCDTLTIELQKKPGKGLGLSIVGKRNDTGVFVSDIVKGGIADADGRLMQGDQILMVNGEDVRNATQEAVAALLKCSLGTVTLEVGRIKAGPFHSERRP

The target in the next experiment is T10, NHERF1_2, O14745.
T10 sequence (O14745 149-244, limits assumed, looked up): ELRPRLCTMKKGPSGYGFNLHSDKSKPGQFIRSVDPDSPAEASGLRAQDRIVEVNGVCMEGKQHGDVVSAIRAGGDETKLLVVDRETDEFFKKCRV

Another experiment has as its target T11, LIN7C, Q9NUP9.
T11 sequence (Q9NUP9 88-185, limits assumed, looked up): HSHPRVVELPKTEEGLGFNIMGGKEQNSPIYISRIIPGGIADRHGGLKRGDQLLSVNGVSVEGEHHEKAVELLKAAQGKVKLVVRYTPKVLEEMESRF

The next experiment deals with T12, SHROOM2, Q13796.
T12 sequence (Q13796 21-118, limits assumed, looked up): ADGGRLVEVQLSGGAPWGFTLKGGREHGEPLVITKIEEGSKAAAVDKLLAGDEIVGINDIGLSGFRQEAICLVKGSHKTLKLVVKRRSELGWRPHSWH

Chain of Inadl_7, Q8NI35 (Q8NI35 1219-1332): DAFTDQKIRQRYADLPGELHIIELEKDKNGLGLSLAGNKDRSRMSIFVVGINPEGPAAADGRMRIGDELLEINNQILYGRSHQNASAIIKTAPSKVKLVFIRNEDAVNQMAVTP
Chain of CNKSR3, Q6P9H4 (Q6P9H4 203-303): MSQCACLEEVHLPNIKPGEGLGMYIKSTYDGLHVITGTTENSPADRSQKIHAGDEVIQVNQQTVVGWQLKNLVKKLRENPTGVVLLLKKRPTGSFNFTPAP
Chain of TJP1_1, Q07157 (Q07157 18-120): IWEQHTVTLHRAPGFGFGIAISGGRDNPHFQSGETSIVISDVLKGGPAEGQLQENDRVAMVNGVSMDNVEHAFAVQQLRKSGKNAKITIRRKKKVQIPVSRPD
Chain of MAGI3_4, Q5TCQ9 (Q5TCQ9 716-815): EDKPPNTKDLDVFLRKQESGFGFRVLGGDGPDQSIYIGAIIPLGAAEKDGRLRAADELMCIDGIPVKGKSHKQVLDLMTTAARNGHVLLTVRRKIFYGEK
Chain of DLG1_3, Q12959 (Q12959 457-571): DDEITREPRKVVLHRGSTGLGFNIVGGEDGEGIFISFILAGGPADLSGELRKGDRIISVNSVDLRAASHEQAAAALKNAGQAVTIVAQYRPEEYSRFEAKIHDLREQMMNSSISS
Chain of SCRIB_4, Q14160 (Q14160 1095-1204): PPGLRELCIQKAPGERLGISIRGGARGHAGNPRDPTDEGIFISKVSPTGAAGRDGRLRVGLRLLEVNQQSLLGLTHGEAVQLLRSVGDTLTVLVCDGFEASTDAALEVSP
Chain of DLG5_2, Q8TDM6 (Q8TDM6 714-800): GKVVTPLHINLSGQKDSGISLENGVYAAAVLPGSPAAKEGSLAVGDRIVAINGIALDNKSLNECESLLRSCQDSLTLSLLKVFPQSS
Chain of DVL2, O14641 (O14641 260-359): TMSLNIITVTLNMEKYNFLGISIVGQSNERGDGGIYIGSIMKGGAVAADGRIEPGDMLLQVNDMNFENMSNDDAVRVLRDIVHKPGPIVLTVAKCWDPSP
Chain of CARD14, Q9BXL6 (Q9BXL6 558-663): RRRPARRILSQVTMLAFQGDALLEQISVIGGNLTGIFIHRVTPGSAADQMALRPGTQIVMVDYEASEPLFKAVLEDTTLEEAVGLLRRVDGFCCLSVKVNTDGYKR
Chain of PREX1_1, Q8TCU6 (Q8TCU6 608-718): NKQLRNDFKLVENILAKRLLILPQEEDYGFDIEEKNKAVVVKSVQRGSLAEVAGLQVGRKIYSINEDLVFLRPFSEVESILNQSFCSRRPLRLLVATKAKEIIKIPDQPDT
Chain of PARD3B_3, Q8TEW8 (Q8TEW8 490-594): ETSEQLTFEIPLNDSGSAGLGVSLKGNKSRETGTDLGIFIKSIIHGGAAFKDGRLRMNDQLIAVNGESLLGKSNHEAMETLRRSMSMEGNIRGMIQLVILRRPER
Chain of GRIP2_2, Q9C0E4 (Q9C0E4 137-245): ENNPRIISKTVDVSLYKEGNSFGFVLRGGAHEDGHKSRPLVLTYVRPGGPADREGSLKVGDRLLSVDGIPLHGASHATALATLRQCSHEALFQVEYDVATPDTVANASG

With PPRQRSETQV [HPV82-E6, Q9IR59], the pKd (in general, the Kd on a negative log10 scale, so that one unit is a factor of ten) with MPDZ_2, O75970 is recorded as “below the threshold”; with PDZRN3_2, Q9UPQ7 it was “below the threshold”; with PTPN13_4, Q12923, “below the threshold”; with PARD3B_3, Q8TEW8 it was “below the threshold”; in the experiment with USH1C_2, Q9Y6N9, “below the threshold”; with PDZD4, Q76G19, “below the threshold”. Moreover, the pKd entry in the experiment with APBA1_2, Q02410 is given as “below the threshold”; with PREX1_1, Q8TCU6, “below the threshold”; with SCRIB_4, Q14160, “below the threshold”; with CNKSR3, Q6P9H4, “below the threshold”; in the experiment with CARD14, Q9BXL6, “below the threshold”; with MAGI3_4, Q5TCQ9 it was “below the threshold”. For the same molecule, the pKd entry was “below the threshold” with GRIP2_2, Q9C0E4; “below the threshold” with PDZD2_5, O15018; “below the threshold” with DLG5_2, Q8TDM6; “below the threshold” in the experiment with SYNPO2L, Q9H987; 3.99 with DLG1_3, Q12959; “below the threshold” with MPDZ_11, O75970. The pKd result was “below the threshold” in the experiment with NHERF1_2, O14745; 3.64 with LIN7C, Q9NUP9; “below the threshold” with Inadl_7, Q8NI35; “below the threshold” with SHROOM2, Q13796; “below the threshold” with DVL2, O14641; “below the threshold” with TJP1_1, Q07157.
Turning to SSIDLWETAL [SLC15A5, A6NIM6], the negative-log Kd (pKd) entry was “below the threshold” with MPDZ_2, O75970; “below the threshold” with PDZRN3_2, Q9UPQ7; “below the threshold” with PTPN13_4, Q12923; “below the threshold” in the experiment with PARD3B_3, Q8TEW8; “below the threshold” in the experiment with USH1C_2, Q9Y6N9; “below the threshold” with PDZD4, Q76G19. Also, the pKd in the experiment with APBA1_2, Q02410 was 4.29; with PREX1_1, Q8TCU6 it was “below the threshold”; with SCRIB_4, Q14160, 4.97; in the experiment with CNKSR3, Q6P9H4, “below the threshold”; with CARD14, Q9BXL6, “below the threshold”; in the experiment with MAGI3_4, Q5TCQ9 it was “below the threshold”. The pKd entry in the experiment with GRIP2_2, Q9C0E4 was “below the threshold”; with PDZD2_5, O15018, “below the threshold”; in the experiment with DLG5_2, Q8TDM6, “below the threshold”; with SYNPO2L, Q9H987 it was “below the threshold”; in the experiment with DLG1_3, Q12959, 4.22; with MPDZ_11, O75970 it was “below the threshold”. The pKd entry with NHERF1_2, O14745 was “below the threshold”; in the experiment with LIN7C, Q9NUP9, 5.21; in the experiment with Inadl_7, Q8NI35 it was “below the threshold”; in the experiment with SHROOM2, Q13796, 5.76; with DVL2, O14641, “below the threshold”; with TJP1_1, Q07157, “below the threshold”.
SGGKRKETLV [NET1, Q7Z628]: the pKd with MPDZ_2, O75970 was 3.75; with PDZRN3_2, Q9UPQ7 it was “below the threshold”; with PTPN13_4, Q12923, “below the threshold”; in the experiment with PARD3B_3, Q8TEW8 it was “below the threshold”; with PDZD4, Q76G19, 3.72; in the experiment with APBA1_2, Q02410, 3.53. The pKd entry with PREX1_1, Q8TCU6 was “below the threshold”; with SCRIB_4, Q14160 it was “below the threshold”; in the experiment with CNKSR3, Q6P9H4 it was “below the threshold”; in the experiment with MAGI3_4, Q5TCQ9, “below the threshold”; with PDZD2_5, O15018, “below the threshold”; with DLG5_2, Q8TDM6 it was 4.58. For the same molecule, the negative logarithm of the Kd (pKd) result in the experiment with SYNPO2L, Q9H987 was “below the threshold”; with DLG1_3, Q12959, 4.44; with MPDZ_11, O75970 it was 3.72; with NHERF1_2, O14745, “below the threshold”; with LIN7C, Q9NUP9 it was 4.4; with Inadl_7, Q8NI35 it was “below the threshold”. In addition, the pKd entry with SHROOM2, Q13796 was “below the threshold”; in the experiment with DVL2, O14641, “below the threshold”; in the experiment with TJP1_1, Q07157, 3.89.
Take SRSRRRETAL [HPV33-E6, P06427]: the pKd entry with MPDZ_2, O75970 is recorded as “below the threshold”; with PDZRN3_2, Q9UPQ7, “below the threshold”; with PTPN13_4, Q12923, “below the threshold”; with PARD3B_3, Q8TEW8 it was “below the threshold”; in the experiment with USH1C_2, Q9Y6N9 it was “below the threshold”; with PDZD4, Q76G19, “below the threshold”. The pKd entry in the experiment with APBA1_2, Q02410 was “below the threshold”; with PREX1_1, Q8TCU6, “below the threshold”; with SCRIB_4, Q14160, 4.24; with CNKSR3, Q6P9H4, “below the threshold”; in the experiment with CARD14, Q9BXL6 it was “below the threshold”; in the experiment with MAGI3_4, Q5TCQ9, “below the threshold”. In addition, the pKd entry is “below the threshold” with GRIP2_2, Q9C0E4; “below the threshold” in the experiment with PDZD2_5, O15018; 4.78 in the experiment with DLG5_2, Q8TDM6; “below the threshold” with SYNPO2L, Q9H987; 4.56 in the experiment with DLG1_3, Q12959; “below the threshold” with MPDZ_11, O75970. In addition, the pKd result is “below the threshold” with NHERF1_2, O14745; 4.14 with LIN7C, Q9NUP9; “below the threshold” with Inadl_7, Q8NI35; “below the threshold” with SHROOM2, Q13796; “below the threshold” in the experiment with DVL2, O14641; “below the threshold” in the experiment with TJP1_1, Q07157.
